In the supplement of paper PMC9112550, “Optimization of the antimicrobial peptide Bac7 by deep mutational scanning” (BMC Biology, 2022):

Tested on: Escherichia coli TOP10
Experiment: shrunken log2 fold change of peptide-encoding DNA abundance (4.5 h post-induction vs induction); higher = less antimicrobial activity (less host growth inhibition)
Details: time post-induction: 4.5 h; library: site-saturation at positions 5, 18, 19, 20
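Also: peptides expressed intracellularly from a pBAD plasmid library in pooled LB shake-flask culture, induced with 0.3% L-arabinose, DNA abundance read by NGS, three biological replicates, DESeq2 with apeglm shrinkage.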

Sequence | shrunken log2 fold change
RRIRVRPPRLPRPRPRPDPQPRP | 0.52
RRIRWRPPRLPRPRPRPGCHPRP | 0.253
RRIRLRPPRLPRPRPRPGYLPRP | -0.282
RRIRMRPPRLPRPRPRPRFAPRP | 0.728
RRIRERPPRLPRPRPRPMGTPRP | -0.272
RRIRCRPPRLPRPRPRPAHFPRP | 0.147
RRIRLRPPRLPRPRPRPTEEPRP | -0.0651
RRIRPRPPRLPRPRPRPHLQPRP | 0.152
RRIRWRPPRLPRPRPRPEWRPRP | 0.439
RRIRARPPRLPRPRPRPRWWPRP | 0.199
RRIRGRPPRLPRPRPRPMWIPRP | 0.218
RRIRRRPPRLPRPRPRPYVRPRP | -0.867
RRIRDRPPRLPRPRPRPEMTPRP | 0.679
RRIRPRPPRLPRPRPRPKCIPRP | -1.04
RRIRTRPPRLPRPRPRPAWKPRP | 0.0317
RRIRPRPPRLPRPRPRPVGKPRP | -0.00576
RRIRCRPPRLPRPRPRPLPGPRP | 0.262
RRIRCRPPRLPRPRPRPPYDPRP | -0.0699
RRIRIRPPRLPRPRPRPKSGPRP | -0.128
RRIRLRPPRLPRPRPRPFIDPRP | -0.439

Sequence | shrunken log2 fold change
RRIRSRPPRLPRPRPRPHGWPRP | -0.107
RRIRWRPPRLPRPRPRPWGVPRP | 0.132
RRIRGRPPRLPRPRPRPSIDPRP | 1.84
RRIRMRPPRLPRPRPRPRVDPRP | 0.95
RRIRARPPRLPRPRPRPAIRPRP | 0.422
RRIRTRPPRLPRPRPRPSSEPRP | -0.0162
RRIRQRPPRLPRPRPRPMTLPRP | 0.106
RRIRYRPPRLPRPRPRPVFRPRP | -0.258
RRIRPRPPRLPRPRPRPIEQPRP | 0.000804
RRIRLRPPRLPRPRPRPLTMPRP | -0.427
RRIRSRPPRLPRPRPRPLWVPRP | 0.0823
RRIRHRPPRLPRPRPRPGLTPRP | 0.129
RRIRVRPPRLPRPRPRPSDPPRP | -0.179
RRIRDRPPRLPRPRPRPKKSPRP | 0.102
RRIRPRPPRLPRPRPRPWRRPRP | 0.142
RRIRMRPPRLPRPRPRPTFLPRP | -0.319
RRIRLRPPRLPRPRPRPRGGPRP | 0.515
RRIRVRPPRLPRPRPRPFFYPRP | 0.0563
RRIRNRPPRLPRPRPRPWICPRP | -0.192
RRIRCRPPRLPRPRPRPHIPPRP | -0.245

Sequence | shrunken log2 fold change
RRIRPRPPRLPRPRPRPNHPPRP | -0.404
RRIRIRPPRLPRPRPRPYNQPRP | -1.01
RRIRQRPPRLPRPRPRPRQKPRP | 0.257
RRIRNRPPRLPRPRPRPRNKPRP | -0.107
RRIRPRPPRLPRPRPRPGMEPRP | 0.367
RRIRYRPPRLPRPRPRPAMHPRP | -0.045
RRIRVRPPRLPRPRPRPRPHPRP | 0.351
RRIRYRPPRLPRPRPRPPHYPRP | -0.686
RRIRVRPPRLPRPRPRPKKDPRP | -0.262
RRIRGRPPRLPRPRPRPTQTPRP | 0.775
RRIRDRPPRLPRPRPRPFKWPRP | -0.0034
RRIRTRPPRLPRPRPRPILNPRP | -0.403
RRIRTRPPRLPRPRPRPCFGPRP | 0.000833
RRIRSRPPRLPRPRPRPWASPRP | -0.114
RRIRYRPPRLPRPRPRPFMFPRP | -0.861
RRIRARPPRLPRPRPRPAGYPRP | 0.399
RRIRVRPPRLPRPRPRPCETPRP | 0.0572
RRIRDRPPRLPRPRPRPKESPRP | 0.277
RRIRCRPPRLPRPRPRPISPPRP | 0.153
RRIRDRPPRLPRPRPRPRNFPRP | 0.0881
